Source: publication PMC2171502 (The Journal of Cell Biology, 2005)
Where “and” joins values, the source holds several entries; their conditions need not be identical. Identical values can stand only once.

B1: Vrp1p-His (full-length S. pombe verprolin Vrp1p with a COOH-terminal His-tag) (natural protein)
chain: MAPAPPPPPPAPAPAAAAPAPPLMTGDRSALLNSIQKGKKLKKATTNDRSAPVVGGGVVGERKSNTPKSFAAPPVPTGAPSLPTSSNNTQQAEERPSMPALGGLFAGGMPKLRHIGKSSASAAPPSAPAPPTPQSELRPPTSAPPRPSIPPPSPASAPPIPSKAPPIPSSLPPPAQPAAPVKSPPSAPSLPSAVPPMPPKVPPPPLSQAPVANTSSRPSSFAPPAGHAPNVTSESPKFPNRGPSIPSASVPPVPPSSYVLQQRPNRVDDHGRFHFKDDSYLPIPHPFLGVPKVYRGGSGTTVPLNLSSF
B2: GST-Myo1p-23A (GST fused to the TH2-SH3-CA domains of the S. pombe myosin-I Myo1p tail) (domain or fragment, UniProt Q9Y7Z8 965-1217, looked up)
chain: TSKSKPFPRLATGGSTAAARGPRPVVQNKPAATKPVSMPAAKSKPAPMANPVSTAQQTQNRPPAPAMQARPNTTQAAAPVTSTTTTIKQATTVSASKPAPSTVTSAASSPSNISKPSAPVANNVSKPSAVPPPPPPPPAEVEKKDLYLALYDFAGRSPNEMTIKKDEIIEIVQKEPSGWWLALKNGAEGWVPATYVTEYKGSTPQTTASSTNVAAQANNNASPAEVNNLAGSLADALRMRASAVRGSDEEEDW

Assays:
actin monomers = actin monomers (UniProt P68135 1-377); experiment: pull-down
[1] = target: B1; experiment: pull-down

Row | Binder | Kd (actin monomers) | Kd [1]
1 | B1 | 1 µM and 0.9 µM and 0.8 µM | 
2 | B2 |  | 4.6 µM and 5.6 µM
